The source of these data is patent publication US20230131056A1 (Stanford University, published 2023).

Like-named read-outs stand apart in the source and are kept apart here.

The target of assay [1] is T1, PD-L2-Fc (human PD-L2) (human, UniProt Q9BQ51 20-220, limits assumed).
T1 construct: not shown: Fc portion
T1 sequence (looked up): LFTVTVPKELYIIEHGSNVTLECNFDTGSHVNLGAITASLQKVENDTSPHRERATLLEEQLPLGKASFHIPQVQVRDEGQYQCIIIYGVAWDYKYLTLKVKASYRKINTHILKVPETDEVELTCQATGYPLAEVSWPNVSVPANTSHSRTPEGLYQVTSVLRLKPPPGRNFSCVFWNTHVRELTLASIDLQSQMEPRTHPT
The experiment in a line: yeast surface display, flow cytometry titration with soluble PDL2. (Flow cytometry measures light scatter and fluorescence of single cells or particles in a stream.)

The target in assay [2] is T1, PD-L2-Fc (human PD-L2). Description: yeast surface display binding assay for PDL2 (summary list).
Assay [3] has as its target T1, PD-L2-Fc (human PD-L2). Description: yeast surface display, flow cytometry titration with soluble PDL2 (cell binding A.U. against PDL2 concentration).
Assay [4] deals with T2, PDL1-Fc (human PD-L1) (human, UniProt Q9NZQ7 19-238, limits assumed).
T2 construct: not shown: Fc portion
T2 sequence (Q9NZQ7 19-238 limits assumed): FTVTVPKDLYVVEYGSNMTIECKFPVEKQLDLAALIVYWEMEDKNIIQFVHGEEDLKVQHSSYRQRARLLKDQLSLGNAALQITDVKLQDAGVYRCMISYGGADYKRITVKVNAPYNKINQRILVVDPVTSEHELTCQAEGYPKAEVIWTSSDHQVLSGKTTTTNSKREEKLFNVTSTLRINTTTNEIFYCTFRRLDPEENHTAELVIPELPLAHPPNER
Description: yeast surface display, flow cytometry titration with soluble PDL1.

Assay [5] addresses T2, PDL1-Fc (human PD-L1). The experiment in a line: yeast surface display, flow cytometry titration with soluble PDL1 (cell binding A.U. against PDL1 concentration).
Assay [6] addresses T1, PD-L2-Fc (human PD-L2). Description: yeast surface display, flow cytometry titration with soluble PDL2. This is another data set of the same source.
Assay [7] has as its target T1, PD-L2-Fc (human PD-L2). The experiment in a line: yeast surface display, flow cytometry titration with soluble PDL2 (cell binding A.U. against PDL2 concentration). This is another data set of the same source.
In assay [8] the target is T2, PDL1-Fc (human PD-L1). The experiment in a line: yeast surface display binding assay for PDL1 (summary list).
The target of assay [9] is T1, PD-L2-Fc (human PD-L2). The experiment in a line: yeast surface display, flow cytometry titration with soluble PDL2. The source holds these as a separate data set.
Assay [10] addresses T1, PD-L2-Fc (human PD-L2). The experiment in a line: yeast surface display, flow cytometry titration with soluble PDL2 (cell binding A.U. against PDL2 concentration). This is another data set of the same source.
Assay [11] concerns the target T2, PDL1-Fc (human PD-L1). Description: yeast surface display, flow cytometry titration with soluble PDL1. The source holds these as a separate data set.
Assay [12] has as its target T2, PDL1-Fc (human PD-L1). The experiment in a line: yeast surface display, flow cytometry titration with soluble PDL1 (cell binding A.U. against PDL1 concentration). This is another data set of the same source.
For assay [13], the target named is T2, PDL1-Fc (human PD-L1). The description is as above. This is another data set of the same source.
Assay [14] has as its target T1, PD-L2-Fc (human PD-L2). The experiment in a line: yeast surface display, flow cytometry titration with soluble PDL2 (cell binding A.U. against PDL2 concentration). This is another data set of the same source.
Assay [15] concerns the target T2, PDL1-Fc (human PD-L1). The experiment in a line: yeast surface display, flow cytometry titration with soluble PDL1 (cell binding A.U. against PDL1 concentration). This is another data set of the same source.
Assay [16] addresses T1, PD-L2-Fc (human PD-L2). Description: yeast surface display, flow cytometry titration with soluble PDL2. The source holds these as a separate data set.
The target in assay [17] is T1, PD-L2-Fc (human PD-L2). The experiment in a line: yeast surface display, flow cytometry titration with soluble PDL2 (cell binding A.U. against PDL2 concentration). The source holds these as a separate data set.
Assay [18] deals with T1, PD-L2-Fc (human PD-L2). The description is as above. This is another data set of the same source.
Assay [19] addresses T2, PDL1-Fc (human PD-L1). Description: yeast surface display, flow cytometry titration with soluble PDL1 (cell binding A.U. against PDL1 concentration). This is another data set of the same source.
The target in assay [20] is T1, PD-L2-Fc (human PD-L2). The experiment in a line: yeast surface display, flow cytometry titration with soluble PDL2. The source holds these as a separate data set.

B1: Clone #3 (128-6 mutations, yeast displayed sPD-1 mutant) (receptor)
chain: LDSPDRPWNPPTFSPALLVVTEGDNATFTCSFSNTSESFVLNWYRMSPSNQTDKLAAFPEDRGQLGQDCRFRVTQLPNGRDFHMSVVRARRNDSGTYLCSAIVLAPKIQIKESLRVELRVTERRAEVPTAHPSPSPRPAGQFQTLV
In the case of B1, in the assay with PD-L2-Fc (human PD-L2) [1], the EC50 (read off the curve) (usually the concentration at which the effect is half-maximal) was ~1 nM. Also, the Kd with PD-L2-Fc (human PD-L2) [2] and with PD-L2-Fc (human PD-L2) [3] was 1.1 nM throughout.

B2: original mutant sPD-1 (7 mutations, yeast displayed) (receptor)
chain: LDSPDRPWNPPTFSPALLVVTEGDNATFTCSFSNTSEGFVLNWYRMSPSNQTDKLAAFPEDRGQLGQDCRFRVTQLPNGRDFHMSVVRARRNDSGTYLCSAIVLAPKIQIKESLRVELRVTERRAEVPTAHPSPSPRPAGQFQTLV
notes: also called initial Mutant PD-1 clone; 2-7 mutations
Turning to B2, the figures for the “EC50 (read off the curve)” value with PDL1-Fc (human PD-L1) [4] and with PD-L2-Fc (human PD-L2) [6] were ~0.4 nM and ~3 nM, respectively. The Kd (usually the free concentration of one partner at which half of the binding sites on the other are occupied at equilibrium, for simple one-to-one binding) was 0.44 nM with PDL1-Fc (human PD-L1) [5], 2.6 nM with PD-L2-Fc (human PD-L2) [7], 2.6 nM with PD-L2-Fc (human PD-L2) [2] and 0.44 nM with PDL1-Fc (human PD-L1) [8].

B3: Clone #5 (62-3 mutations, yeast displayed sPD-1 mutant) (receptor)
chain: LDSPDRPWNPPTFSPALLVVTEGDNATFTCSFSNTSESFVLNWYRMSPSNQTDKLAAFPEDRSQPGQDCRFRVTQLPNGRDFHMSVVRARRNDSGTYLCSAIVLAPKIQIKESLRAELRVTERRAEVPTAHPSPSPRPAGQFQTLV
As for B3, the entries for the “EC50 (read off the curve)” value with PD-L2-Fc (human PD-L2) [9] and with PDL1-Fc (human PD-L1) [11] were ~4 nM and ~0.8 nM, respectively. Also, the Kd in the assay with PD-L2-Fc (human PD-L2) [10] came out at 4.1 nM; in the assay with PDL1-Fc (human PD-L1) [12] it was 0.8 nM; in the assay with PD-L2-Fc (human PD-L2) [2] it was 4.1 nM; with PDL1-Fc (human PD-L1) [8] it was 0.8 nM.

B4: Clone #2 (120-5 mutations, yeast displayed sPD-1 mutant) (receptor)
chain: LDSPDRPWNPPTFSPALLVVTEGDNATFTCSFSNTSESFVLNWYRMSPSNQTDKLAAFPEDRGQPGQDCRFRVTQLPNGRDFHMSVVRARRNDSGTYLCSAIVLAPKIQIKESLRVELRVTERRAEVPTAHPSPSPRPAGQFQTLV
Consider B4, for which the Kd in the assay with PDL1-Fc (human PD-L1) [13] came out at 0.12 nM; in the assay with PD-L2-Fc (human PD-L2) [14], 0.11 nM; with PD-L2-Fc (human PD-L2) [2], 0.11 nM; with PDL1-Fc (human PD-L1) [8], 0.12 nM.

B5: Clone #1 (121-5 mutations, yeast displayed sPD-1 mutant) (receptor)
chain: LDSPDRPWNPPTFSPALLVVTEGDNATFTCSFSNTSESFVLNWYRMSPSNQTDKLAAFPEDRSQLGQDCRFRVTQLPNGRDFHMSVVRARRNDSGTYLCSAIVLAPKIQIKESLRVELRVTERRAEVPTAHPSPSPRPAGQFQTLV
For B5, the Kd with PDL1-Fc (human PD-L1) [15] was found to be 0.03 nM; in the assay with PD-L2-Fc (human PD-L2) [2], 1.4 nM; in the assay with PDL1-Fc (human PD-L1) [8] it was 0.03 nM; with PD-L2-Fc (human PD-L2) [17] it was 1.4 nM. Moreover, in the assay with PD-L2-Fc (human PD-L2) [16], the “EC50 (read off the curve)” value was ~1 nM.

B6: Clone #4 (100-4 mutations, yeast displayed sPD-1 mutant) (receptor)
chain: LDSPDRPWNPPTFSPALLVVTEGDNATFTCSFSNTSESFVLNWYRMSPSNQTDKLAAFPEDRSQPGQDCRFRVTQLPNGRDFHMSVVRARRNDSGTYLCSAIVLAPKIQIKESLRVELRVTERRAEVPTAHPSPSPRPAGQFQTLV
Consider B6, for which the Kd in the assay with PD-L2-Fc (human PD-L2) [18] was 0.87 nM; with PDL1-Fc (human PD-L1) [19] it was 0.08 nM; with PD-L2-Fc (human PD-L2) [2] it was 0.87 nM; with PDL1-Fc (human PD-L1) [8], 0.08 nM. Also, in the assay with PD-L2-Fc (human PD-L2) [20], the “EC50 (read off the curve)” value is ~0.9 nM.
